This note sets out measurements from patent publication US20260263521A1 (AIMED BIO, published 2026).

Experiment [1] deals with T1, human CD200RLa (Sino Biological, 11620-H08H) recombinant protein (human, UniProt Q6Q8B3 24-239).
T1 construct: Bought; construct not described
T1 sequence (looked up): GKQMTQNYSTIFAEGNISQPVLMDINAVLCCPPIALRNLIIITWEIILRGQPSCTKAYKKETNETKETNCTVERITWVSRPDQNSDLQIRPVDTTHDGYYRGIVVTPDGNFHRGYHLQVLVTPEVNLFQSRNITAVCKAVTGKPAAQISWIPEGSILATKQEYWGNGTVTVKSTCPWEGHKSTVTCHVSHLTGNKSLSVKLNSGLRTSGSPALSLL
Put plainly: ELISA, plate-bound human CD200RLa (2 ug/mL), antibody 0.0192-300 nM, O.D 450 nm; panel 'recombinant human CD200RLa'. The procedure: 96-well plates were coated with human CD200RLa (Sino Biological, 11620-H08H) and monkey CD200RLa (Sino Biological, 11576-C02H) recombinant proteins at a concentration of 2 μg/mL at 4° C. for 16 hours, and blocked with 3% skim milk for 1 hour. […] Color was developed with a TMB substrate solution (Thermo Scientific, 34029, 1-Step™ Ultra TMB-ELISA Substrate Solution). The color reaction was stopped with stop solution (Invitrogen, SS04, ELISA Stop Solution).

The target in experiment [2] is T2, human CD200R1 expressed on cells (Jurkat-CD200R1, U937-CD200R1, HH cells) (human, UniProt Q8TD46 25-348).
T2 construct: whole, on cells; also called HH (CRL-2105); cell surface-expressed CD200R1
T2 sequence (looked up): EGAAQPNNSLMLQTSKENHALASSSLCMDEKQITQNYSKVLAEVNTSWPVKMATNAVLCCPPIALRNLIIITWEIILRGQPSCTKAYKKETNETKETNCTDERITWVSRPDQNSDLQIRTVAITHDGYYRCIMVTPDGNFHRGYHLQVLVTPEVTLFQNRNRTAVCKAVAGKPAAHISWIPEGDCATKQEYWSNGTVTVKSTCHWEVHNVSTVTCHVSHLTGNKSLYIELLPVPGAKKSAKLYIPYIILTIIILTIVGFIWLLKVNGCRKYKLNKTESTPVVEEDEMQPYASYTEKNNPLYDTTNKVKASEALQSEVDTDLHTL
Put plainly: flow cytometry, HH cells; drawn table.

Experiment [3] deals with T2, human CD200R1 expressed on cells …. Nature of the experiment: flow cytometry, HH cells; drawn table, row EC50. (Flow cytometry measures light scatter and fluorescence of single cells or particles in a stream.)
Experiment [4] deals with T3, mouse CD200R1 protein (R&D systems, 2554-CD) (mouse, UniProt Q9ES57 26-238, limits assumed).
T3 construct: Bought; construct not described
T3 sequence (looked up): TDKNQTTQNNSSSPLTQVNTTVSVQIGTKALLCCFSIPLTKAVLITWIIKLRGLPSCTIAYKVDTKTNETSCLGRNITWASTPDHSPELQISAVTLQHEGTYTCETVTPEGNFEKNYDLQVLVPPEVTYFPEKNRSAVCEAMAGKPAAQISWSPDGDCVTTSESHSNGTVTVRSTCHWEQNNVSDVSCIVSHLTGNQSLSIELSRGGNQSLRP
Nature of the experiment: ELISA, plate-bound mouse CD200R1 (2 ug/mL), IgG 0.0192-300 nM, OD 450 nm; panel 'mouse CD200R1'. On the procedure: 96-well plates were coated with human CD200R1 (R&D systems, 3414-CD) and mouse CD200R1 protein (R&D systems, 2554-CD) at a concentration of 2 μg/mL at 4° C. for 16 hours and then were blocked with 3% skim milk.
Color was developed with a TMB substrate solution (Thermo Scientific, 34029, 1-Step™ TMB-ELISA Ultra Substrate Solution). The color reaction was stopped with stop solution (Invitrogen, SS04, ELISA Stop Solution). The absorbance was measured at an optical density of 450 nm.
(In an ELISA, binding on a coated surface is turned into a signal by an enzyme label.)

The EC50 is the concentration needed to bring the measured effect to its halfway point.

B1: P001017 (chimeric OX108) (antibody, V domains shown)
VH: EVKLQQSGPELVKPGASVKMSCKASGYTFTSYVMHWVKQKPGQGLEWIGYINPYNDDTNYNEKFKGKATLTSDKSSSTAYMELSSLTSEDSAVYYCAREDYYGSRWGYWGQGTTLTVSS
VL: DIVLTQSPASLAVSLGQRATISCRASKSVSTSGYSYMHWYQQKPGQPPKLLIYLASNLESGVPARFSGSGSGTDFTLNIHPVEEEDAATYYCQHSRELLTFGAGTKLELK
notes: also called QX108; murine anti-CD200R1 antibody OX108
Regarding B1, the binding result in experiment [1] is “no binding (tested: 300 nM)”.

B2: P001018 scFv mutant H3-Y102K (scFv)
scFv: QVQLVQSGAEVKKPGASVKVSCKASGYTFTSYVMHWVRQAPGQGLEWMGYINPYNDDTNYNEKFKGRVTMTRDTSTSTVYMELSSLRSEDTAVYYCAREDYYGSRWGKWGQGTLVTVSSGGGGSGGGGSGGGGSDIVLTQSPASLAVSPGQRATITCRASKSVSTSGYSYMHWYQQKPGQPPKLLIYLASNLESGVPARFSGSGSGTDFTLTINPVEANDTANYYCQHSRELLTFGQGTKVEIK
On to B2, for which, in experiment [2], the “Geo mean (%) at 0.05 nM” value is 2.1%, the “Geo mean (%) at 0.19 nM” value stood at 6.1%, the “Geo mean (%) at 0.78 nM” value stood at 17.1% and the “Geo mean (%) at 3.125 nM” value was 35.3%. In experiment [2], the “Geo mean (%) at 12.5 nM” value was determined as 67%, the “Geo mean (%) at 50 nM” value was 85.7%, the “Geo mean (%) at 200 nM” value was found to be 104% and the “Geo mean (%) at 800 nM” value worked out at 120%. The molecule further yielded an EC50 in experiment [3] of 9.79 nM.

B3: P001018 scFv mutant H3-Y102T (scFv)
scFv: QVQLVQSGAEVKKPGASVKVSCKASGYTFTSYVMHWVRQAPGQGLEWMGYINPYNDDTNYNEKFKGRVTMTRDTSTSTVYMELSSLRSEDTAVYYCAREDYYGSRWGTWGQGTLVTVSSGGGGSGGGGSGGGGSDIVLTQSPASLAVSPGQRATITCRASKSVSTSGYSYMHWYQQKPGQPPKLLIYLASNLESGVPARFSGSGSGTDFTLTINPVEANDTANYYCQHSRELLTFGQGTKVEIK
Regarding B3, in experiment [2], the “Geo mean (%) at 0.05 nM” value came out at 2%, the “Geo mean (%) at 0.19 nM” value amounted to 5.8%, the “Geo mean (%) at 0.78 nM” value is 15.5% and the “Geo mean (%) at 3.125 nM” value worked out at 33.2%. Further, in experiment [2], the “Geo mean (%) at 12.5 nM” value stood at 69.7%, the “Geo mean (%) at 50 nM” value was 91.6%, the “Geo mean (%) at 200 nM” value was found to be 107% and the “Geo mean (%) at 800 nM” value amounted to 121%. The molecule also displayed an EC50 in experiment [3] of 9.43 nM.

B4: P001018 scFv mutant L3-L95D (scFv)
scFv: QVQLVQSGAEVKKPGASVKVSCKASGYTFTSYVMHWVRQAPGQGLEWMGYINPYNDDTNYNEKFKGRVTMTRDTSTSTVYMELSSLRSEDTAVYYCAREDYYGSRWGYWGQGTLVTVSSGGGGSGGGGSGGGGSDIVLTQSPASLAVSPGQRATITCRASKSVSTSGYSYMHWYQQKPGQPPKLLIYLASNLESGVPARFSGSGSGTDFTLTINPVEANDTANYYCQHSRELDTFGQGTKVEIK
With B4, in experiment [2], the “Geo mean (%) at 0.05 nM” value amounted to 2%, the “Geo mean (%) at 0.19 nM” value is 5.6%, the “Geo mean (%) at 0.78 nM” value stood at 16.4% and the “Geo mean (%) at 3.125 nM” value was 35.6%. Further, in experiment [2], the “Geo mean (%) at 12.5 nM” value worked out at 73.8%, the “Geo mean (%) at 50 nM” value stood at 95.3%, the “Geo mean (%) at 200 nM” value amounted to 119% and the “Geo mean (%) at 800 nM” value stood at 145%. Besides, the EC50 in experiment [3] stood at 13.1 nM.

B5: P001018 scFv mutant L3-R92S (scFv)
scFv: QVQLVQSGAEVKKPGASVKVSCKASGYTFTSYVMHWVRQAPGQGLEWMGYINPYNDDTNYNEKFKGRVTMTRDTSTSTVYMELSSLRSEDTAVYYCAREDYYGSRWGYWGQGTLVTVSSGGGGSGGGGSGGGGSDIVLTQSPASLAVSPGQRATITCRASKSVSTSGYSYMHWYQQKPGQPPKLLIYLASNLESGVPARFSGSGSGTDFTLTINPVEANDTANYYCQHSSELLTFGQGTKVEIK
Regarding B5, in experiment [2], the “Geo mean (%) at 0.05 nM” value is 1.7%, the “Geo mean (%) at 0.19 nM” value was determined as 4.5%, the “Geo mean (%) at 0.78 nM” value stood at 12% and the “Geo mean (%) at 3.125 nM” value is 33.9%. For the same molecule, in experiment [2], the “Geo mean (%) at 12.5 nM” value was determined as 73.2%, the “Geo mean (%) at 50 nM” value was found to be 90.1%, the “Geo mean (%) at 200 nM” value stood at 108% and the “Geo mean (%) at 800 nM” value is 116%. This molecule also gave an EC50 in experiment [3] of 7.76 nM.

B6: P001018 scFv mutant L3-L94H (scFv)
scFv: QVQLVQSGAEVKKPGASVKVSCKASGYTFTSYVMHWVRQAPGQGLEWMGYINPYNDDTNYNEKFKGRVTMTRDTSTSTVYMELSSLRSEDTAVYYCAREDYYGSRWGYWGQGTLVTVSSGGGGSGGGGSGGGGSDIVLTQSPASLAVSPGQRATITCRASKSVSTSGYSYMHWYQQKPGQPPKLLIYLASNLESGVPARFSGSGSGTDFTLTINPVEANDTANYYCQHSREHLTFGQGTKVEIK
For B6, in experiment [2], the “Geo mean (%) at 0.05 nM” value turned out to be 2.2%, the “Geo mean (%) at 0.19 nM” value is 5.6%, the “Geo mean (%) at 0.78 nM” value worked out at 18.5% and the “Geo mean (%) at 3.125 nM” value amounted to 35.3%. For the same molecule, in experiment [2], the “Geo mean (%) at 12.5 nM” value stood at 59.1%, the “Geo mean (%) at 50 nM” value worked out at 75.2%, the “Geo mean (%) at 200 nM” value worked out at 96.7% and the “Geo mean (%) at 800 nM” value is 105%. For the same molecule, the EC50 in experiment [3] worked out at 9.4 nM.

B7: P001018 scFv mutant L3-L94S (scFv)
scFv: QVQLVQSGAEVKKPGASVKVSCKASGYTFTSYVMHWVRQAPGQGLEWMGYINPYNDDTNYNEKFKGRVTMTRDTSTSTVYMELSSLRSEDTAVYYCAREDYYGSRWGYWGQGTLVTVSSGGGGSGGGGSGGGGSDIVLTQSPASLAVSPGQRATITCRASKSVSTSGYSYMHWYQQKPGQPPKLLIYLASNLESGVPARFSGSGSGTDFTLTINPVEANDTANYYCQHSRESLTFGQGTKVEIK
Turning to B7, in experiment [2], the “Geo mean (%) at 0.05 nM” value came to 1.8%, the “Geo mean (%) at 0.19 nM” value worked out at 5.9%, the “Geo mean (%) at 0.78 nM” value is 17.3% and the “Geo mean (%) at 3.125 nM” value came out at 35.5%. In experiment [2], the “Geo mean (%) at 12.5 nM” value was found to be 62%, the “Geo mean (%) at 50 nM” value came out at 76.6%, the “Geo mean (%) at 200 nM” value is 98.7% and the “Geo mean (%) at 800 nM” value is 110%. The EC50 in experiment [3] stood at 9.52 nM.

B8: P001018 scFv mutant L3-R92H (scFv)
scFv: QVQLVQSGAEVKKPGASVKVSCKASGYTFTSYVMHWVRQAPGQGLEWMGYINPYNDDTNYNEKFKGRVTMTRDTSTSTVYMELSSLRSEDTAVYYCAREDYYGSRWGYWGQGTLVTVSSGGGGSGGGGSGGGGSDIVLTQSPASLAVSPGQRATITCRASKSVSTSGYSYMHWYQQKPGQPPKLLIYLASNLESGVPARFSGSGSGTDFTLTINPVEANDTANYYCQHSHELLTFGQGTKVEIK
For the molecule B8, in experiment [2], the “Geo mean (%) at 0.05 nM” value is 3.3%, the “Geo mean (%) at 0.19 nM” value was determined as 8.7%, the “Geo mean (%) at 0.78 nM” value worked out at 19.8% and the “Geo mean (%) at 3.125 nM” value was found to be 43.8%. Also, in experiment [2], the “Geo mean (%) at 12.5 nM” value came to 84.1% and the “Geo mean (%) at 50 nM” value came to 100%. It took 6.14 nM to reach a half-maximal effect in experiment [3] (EC50).

B9: P001013 (IgG) (antibody, V domains shown)
VH: EVQLLESGGGLVQPGGSLRLSCAASGFTFSGYDMSWVRQAPGKGLEWVSGIPPGDGSTYYADSVKGRFTISRDNSKNTLYLQMNSLRAEDTAVYYCAKHLVSDHPPSQYSDDGMDVWGQGTLVTVSS
VL: QSVLTQPPSASGTPGQRVTISCSGSSSNIGNNDVNWYQQLPGTAPKLLIYYNSQRPSGVPDRFSGSKSGTSASLAISGLRSEDEADYYCGSWDYSLNGYVFGGGTKLTVL
Turning to B9, the binding result in experiment [4] and in experiment [1] was “no binding (tested: 300 nM)” each time.
